The chains are these.
B6: Mis18 (S. pombe) (natural protein, UniProt Q9P802 1-194, looked up)
chain: MSQTETSHSGYIDFKKESQPSVFQCKKCFQIVGDSNAWVISHREYLSFTLSDAVENSVRVEDTFKRSDDGLCVYSELSCTRCNEVIGKVYNSTPIYLDDIRDMYTFSMDKLQAYQLGNKTVNPEGLTRYQVDLEMREDIIKLKSFCLSLYEKFELHDETLRSVKETISSLKKPKIEGKEGKKEKARTYSKRTRK
notes: Mis18, S. pombe, N-terminal YIPPEE domain and C-terminal coiled coil; 'Full-length' is said of the co-expressed complex; source: insect cells; co-expressed with Mis16 and Mis19 and co-purified, or purified alone for the pull-down

Data set [1] has as its target T1, Mis16 (S. pombe), full length, affinity tag removed (S. pombe, UniProt O94244 1-430).
T1 construct: Mis16, S. pombe, WD40-repeat protein, homologue of human RbAp46/48; codon-optimised gene; Used where the methods or text say the tag was removed (crystals, MALLS of the untagged complex) and, by the general purification protocol, for ITC and AUC; source: insect cells (baculovirus made in Sf21, expressed in Hi5), purified (Strep-Tactin, anion exchange, TEV cleavage, SEC); not shown: double …
Briefly: AUC; sedimentation velocity of the purified co-expressed Mis16–Mis18–Mis19 complex at two concentrations; 150 mM NaCl, 25 mM Tris–HCl pH 8.0, 2 mM TCEP; 50,000 rpm, 4°C; c(s) in SEDFIT. The note with it: both partners purified.

The target in data set [2] is T1, Mis16 (S. pombe), full length, affinity …. Briefly: SEC-MALS; 200 μg of purified Mis16–Mis19C complex on Superose 6 Increase 10/300 coupled to a Wyatt Dawn 8+ MALS system. The note with it: both partners purified. A general note: Size exclusion chromatography separates by hydrodynamic size, large species first.
Data set [3] addresses B6. Nature of the data set: SEC; competition: preformed Mis16–Mis18–Mis19 complex challenged with peptides from the Mis19 N terminus; dissociation seen as separate Mis16–19 and Mis18 peaks. To be noted: both partners purified.
Data set [4] addresses T1, Mis16 (S. pombe), full length, affinity …. Nature of the data set: ITC; competition: Mis16 preincubated with one peptide (H4α1 or Mis19α2) before titration with the second; apparent KD. To be noted: both partners purified. (Isothermal titration calorimetry measures the heat released or taken up as one component is titrated into another.)
Data set [5] has the same target. Nature of the data set: ITC; iTC200, 30°C; 50 mM Tris pH 7.5, 100 mM NaCl, 4% glycerol, 0.5 TCEP; 26 μM protein in the cell, 260 μM peptide injected. To be noted: both partners purified.
Data set [6] deals with the molecule itself. Briefly: AUC; sedimentation velocity of the purified co-expressed Mis16–Mis18–Mis19 complex at two concentrations; 150 mM NaCl, 25 mM Tris–HCl pH 8.0, 2 mM TCEP; 50,000 rpm, 4°C; c(s) in SEDFIT.

B1: Mis19 (S. pombe), full length (natural protein, UniProt O42995 1-112, looked up)
chain: MDLMPLEKARAIEIAFDNVFHNTKIPDNLQQFDAILKRLERRRFIPTENQKPRVYETELLVLRFREFGVKDNHNHPINLHSLRSKSLIRAQGKKLDLHNRVFLRRNVRAVKM
notes: Mis19 (also known as Eic1), S. pombe; only handled in complex; also called Eic1; source: insect cells (MultiBac), co-expressed with Mis16 and Mis18, co-purified
With B1, in data set [1], the binding result is reported as “binds”.

B2: Mis19C (Mis19 residues 52–112) (domain or fragment, S. pombe, UniProt O42995 52-112, looked up)
chain: PRVYETELLVLRFREFGVKDNHNHPINLHSLRSKSLIRAQGKKLDLHNRVFLRRNVRAVKM
notes: holds sites A, B and C; Cannot be expressed and purified without Mis16; also called Mis19^52-C; N-terminal truncation of Mis19; source: insect cells, co-expressed with Mis16
As usually defined, the stoichiometry N is a count of units in the complex or per binding partner. Turning to B2, the “stoichiometry N” value in data set [2] amounted to 1.

B3: Mis19^1–44 peptide (peptide, UniProt O42995 1-44, looked up)
peptide: MDLMPLEKARAIEIAFDNVFHNTKIPDNLQQFDAILKRLERRRF
notes: Mis19 (Eic1), S. pombe, residues 1–44 (motifs 1 and 2); also called wild-type peptide
Turning to B3, in data set [3], the binding result is listed as “binds”.

B4: Mis19α2 peptide (Mis19 residues 97–112) (peptide, UniProt O42995 97-112, looked up)
peptide: LHNRVFLRRNVRAVKM
notes: also called Mis19 site C peptide
One may read the Kd as the concentration at which binding is half-saturated. A lower Kd goes with a tighter complex. For B4, in data set [4], the “apparent KD with Mis16 preincubated with H4α1” value turned out to be 2.5 µM. This molecule also came in with an equilibrium dissociation constant (Kd) in data set [5] of 0.008 µM.

B5: Mis19 C-terminal peptide (residues 97–112) F102S (peptide, UniProt O42995 97-112, looked up)
peptide: LHNRVSLRRNVRAVKM
notes: the text ties the value to the F102S (eic1-1) mutant; also called F102 mutant; eic1-1 mutation
Molecule B5 gave a Kd in data set [5] of about 0.301 µM. On to B6, for which the “stoichiometry N” value in data set [6] worked out at 4.

The record behind these values is paper PMC6677171 (Life Science Alliance, 2019).
